In patent US20200171068A1, “COMPOSITIONS COMPRISING APTAMERS AND NUCLEIC ACID PAYLOADS AND METHODS OF USING THE SAME” (Children's National Medical Center, priority 2017, published 2020):
Entries after “also recorded” stand apart in the source; their conditions may differ.

System: MDA-MB-231 cell line
Test: Aptamer binding assay to MDA-MB-231 cells by flow cytometry
Set-up: species or system human
Conditions: biotin-conjugated aptamer
Method: DNA sequences for anti-human KIT aptamer (21) and mouse c-Kit aptamers (22) conjugated with biotin at 3′ were functionalized by short denaturation-renaturation step (95° C. 10 min, 5 min snap-cooling on ice). These DNA sequences were 5′-[…] […]-3′ (SEQ ID NO: 2) for human KIT, 5′-[…]-3′ (SEQ ID NO:3) for mouse c-Kit. These activated aptamers were used for binding assay to the cell lines by flow cytometry. For chimera preparation, human KIT-aptamer or mouse c-Kit-aptamer miR-26a chimera was assembled by three compartments of DNA/RNA hybrid sequences. The sequences were 5′-[…] […]/C3 (SEQ ID NO:4) spacer/CCUAUUCUGG-3′(SEQ ID NO:5) for human KIT aptamer+the part of passenger sequence for miR-26a-5p, 5′-[…]/C3 (SEQ ID NO:6) spacer/CCUAUUCUGG-3′ (SEQ ID NO:7) for mouse cKit aptamer+the part of passenger sequence for miR-26a-5p, 5′-GUUACUUGCACG/TEG (triethylene glycol)-Cholesterol-3′ (SEQ ID NO:8) for the part of sequence for miR-26a-5p+cholesterol, and 5′-[…]-3′ (SEQ ID NO:9) for guide sequence for miR-26a-5p (RNA sequences were represented as italic). The guide sequence for scramble control was […] (SEQ ID NO:10). To protect the oligonucleotide sequences from nuclease degradation, phosphorothioate bonds were introduced between the last 3 nucleotides at the 5′-end of DNA aptamers. The RNA sequences were modified with 2′-fluoro-uridines. […]

B1: human KIT aptamer: DNA aptamer against human KIT, SEQ ID NO:2, conjugated with biotin at 3′ for binding assay (nucleic acid)
DNA: GAGGCATACCAGCTTATTCAAGGGGCCGGGGCAAGGGGGGGGTACCGTGGTAGGACATAGTAAGTGCAATCTGCGAA
modifications: DNA, 3' {Biotin}, backbone not given here; further chemistry not fully specified
  binding to MDA-MB-231 cell line: confirmed the binding; also recorded: nearly identical distribution of KIT expression
